Numbering of substitutions follows the chain as printed.
Key:
[1] = test system: phosphorylation of Smad2/3 in kidney of Col4a3−/− mice; experiment: Alport (Col4a3−/−) mouse model, pSMAD2/3 ELISA on whole kidney lysates; type: in vivo; details: single dose 30 mg/kg i.p., 48 hours prior to sacrifice, 11 week old Col4a3−/− mice
Excerpt: The murine Col4a3 −/− model is an established genetic model of autosomal recessive Alport syndrome. Alport mice lack a functional collagen 4A3 gene (Col4A3−/−) and therefore cannot form normal type IV collagen trimers, which require a3, a4, and a5 chains. Col4a3−/− mice develop fibrosis in the kidney consistent with renal fibrosis in human patients, including interstitial fibrosis and tubular atrophy, and Col4a3−/− mice develop end-stage renal disease (ESRD) between 8 and 30 weeks of age, depending on the genetic background of the mouse. The structural and functional manifestation of renal pathology in Col4a3−/− mice, combined with the progression to ESRD make Col4a3−/− mice an ideal model to understand kidney fibrosis. […]
It is well documented that TGFβ receptor activation leads to a downstream signaling cascade of intracellular events, including phosphorylation of Smad2/3. Therefore, the ability of SR-AB42 and SR-AB63 treatment to inhibit TGFβ signaling was assessed in kidney lysate samples by measuring relative phosphorylation levels of Smad2/3 as assayed by ELISA (Cell Signaling Technologies) according to the manufacturer's instructions. […] FIG. 20B is a graph showing the amount of phosphorylated SMAD2/3 (pSMAD2/3) as determined by ELISA and FIG. 20C is a graph showing the amount of total […] (tSMAD2/3) protein as determined by ELISA.

[2] = test system: proTGFβ1 presented by endogenous LTBP1/3 in LN229 cells; experiment: Endogenous LTBP caga assay: LN229 cells transfected with human proTGFβ1 only, CAGA12 luciferase reporter cells; type: cell-based; details: endogenous presenting molecules
murine LTBP1-proTGFβ1 = target: T1, murine LTBP1-proTGFβ1 (Mus musculus, UniProt P04202+Q8CG19); experiment: Murine LTBP overexpression caga assay: LN229 cells co-transfected with mouse LTBP1 and mouse proTGFβ1, CAGA12 reporter cells; type: cell-based; details: overexpressed murine LTBP1-proTGFβ1
T1 construct: expressed in transfected cells; host or cells: LN229
Procedure: Additionally, the ability of SR-AB2 to inhibit LTBP1/3-proTGFβ1 in a cell-based assay was also conducted. As essentially described above in Example 2, LN229 cells were seeded on fibronectin pre-coated assay wells and directly transfected with the indicated DNA molecules.
LTBP complex-specific antibodies from the first round of affinity maturation/optimization (i.e., SR-AB14, SR-AB16, SR-AB17, SR-AB18, SR-AB19) were selected for a second round of affinity maturation/optimization (i.e., CDR-H3 mutagenesis as described herein) and particular progeny antibodies (SR-AB20, SR-AB21, SR-AB22, SR-AB23, SR-AB24, SR-AB25, SR-AB26, SR-AB27, SR-AB28, and SR-AB29) were assessed for their ability to inhibit TGFβ activity using LN229 cells. For the assays depicted in FIGS. 13A, 13B, 14A, and 14B the following protocol was used, which is a modified version of Assay II in Example 2. […]
On day 0, prior to cell seeding, assay plates were coated with Fibronectin (LTBP over expression assay only). […] The cell pellet was resuspended in D10 media and viable cells per ml counted. […]

Chain of proTGFβ1 presented by endogenous LTBP1/3 in LN229 cells (P01137 30-390): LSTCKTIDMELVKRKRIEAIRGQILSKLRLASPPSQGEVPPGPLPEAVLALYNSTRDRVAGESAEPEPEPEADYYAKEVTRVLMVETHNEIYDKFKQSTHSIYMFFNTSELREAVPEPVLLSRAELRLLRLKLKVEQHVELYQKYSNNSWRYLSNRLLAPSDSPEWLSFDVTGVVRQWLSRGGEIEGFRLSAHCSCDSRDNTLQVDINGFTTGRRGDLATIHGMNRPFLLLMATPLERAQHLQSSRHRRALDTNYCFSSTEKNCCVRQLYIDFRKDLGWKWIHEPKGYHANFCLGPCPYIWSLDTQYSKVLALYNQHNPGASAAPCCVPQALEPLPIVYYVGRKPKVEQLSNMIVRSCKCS
T1 sequence (P04202 30-390): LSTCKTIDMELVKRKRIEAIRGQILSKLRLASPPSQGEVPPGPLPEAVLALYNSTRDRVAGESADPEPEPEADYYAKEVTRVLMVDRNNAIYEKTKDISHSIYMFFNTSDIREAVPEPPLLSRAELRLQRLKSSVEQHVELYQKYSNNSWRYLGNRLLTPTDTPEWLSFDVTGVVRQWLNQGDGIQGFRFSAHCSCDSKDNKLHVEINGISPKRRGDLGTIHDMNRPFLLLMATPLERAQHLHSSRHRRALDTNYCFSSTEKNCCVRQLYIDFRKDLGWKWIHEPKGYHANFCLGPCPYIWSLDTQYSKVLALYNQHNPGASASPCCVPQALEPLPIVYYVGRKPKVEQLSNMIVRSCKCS
T1 sequence (Q8CG19 339-1712 limits assumed): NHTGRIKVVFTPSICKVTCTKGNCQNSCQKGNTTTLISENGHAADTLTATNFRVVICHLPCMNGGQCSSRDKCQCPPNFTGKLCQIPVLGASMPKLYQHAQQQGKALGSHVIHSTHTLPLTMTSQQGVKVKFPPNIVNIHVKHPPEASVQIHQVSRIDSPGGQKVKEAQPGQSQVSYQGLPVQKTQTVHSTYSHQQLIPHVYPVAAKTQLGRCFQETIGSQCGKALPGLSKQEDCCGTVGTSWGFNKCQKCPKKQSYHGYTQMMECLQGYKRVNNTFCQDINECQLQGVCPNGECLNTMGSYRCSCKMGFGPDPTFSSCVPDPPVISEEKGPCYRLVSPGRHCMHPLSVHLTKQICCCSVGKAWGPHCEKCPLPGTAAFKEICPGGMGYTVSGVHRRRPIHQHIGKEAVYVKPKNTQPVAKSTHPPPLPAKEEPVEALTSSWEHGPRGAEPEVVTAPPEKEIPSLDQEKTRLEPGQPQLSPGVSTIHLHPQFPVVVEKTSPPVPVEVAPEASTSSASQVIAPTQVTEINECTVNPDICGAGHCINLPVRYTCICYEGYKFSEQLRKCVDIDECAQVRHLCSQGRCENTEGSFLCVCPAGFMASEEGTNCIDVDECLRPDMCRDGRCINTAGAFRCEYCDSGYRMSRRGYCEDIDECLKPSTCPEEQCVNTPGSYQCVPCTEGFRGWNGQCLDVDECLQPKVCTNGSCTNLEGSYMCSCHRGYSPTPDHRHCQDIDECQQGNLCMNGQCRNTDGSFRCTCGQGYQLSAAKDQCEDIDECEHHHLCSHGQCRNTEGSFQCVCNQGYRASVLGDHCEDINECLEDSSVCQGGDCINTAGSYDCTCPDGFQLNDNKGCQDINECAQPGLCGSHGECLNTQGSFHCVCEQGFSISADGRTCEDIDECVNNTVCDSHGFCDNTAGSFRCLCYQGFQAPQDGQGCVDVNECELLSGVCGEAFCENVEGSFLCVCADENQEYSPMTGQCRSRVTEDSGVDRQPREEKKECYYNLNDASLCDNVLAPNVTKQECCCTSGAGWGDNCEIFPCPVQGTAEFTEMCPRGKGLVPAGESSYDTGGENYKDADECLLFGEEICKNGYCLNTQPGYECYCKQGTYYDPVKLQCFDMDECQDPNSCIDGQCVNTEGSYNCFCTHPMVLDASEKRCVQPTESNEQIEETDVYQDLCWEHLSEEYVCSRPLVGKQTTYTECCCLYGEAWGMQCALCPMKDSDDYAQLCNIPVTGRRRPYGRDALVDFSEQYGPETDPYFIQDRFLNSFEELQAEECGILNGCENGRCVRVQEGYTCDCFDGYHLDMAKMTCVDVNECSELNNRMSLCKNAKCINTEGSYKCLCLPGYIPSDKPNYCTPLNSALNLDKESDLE

B1: SR-AB63: cycle 3 antibody, lineage SR-AB26; CDRs SEQ ID NO: 292-297; HCVR SEQ ID NO: 360, LCVR SEQ ID NO: 361 (antibody, V domains shown)
VH: QLQLQESGPGLVKPSETLSLTCTVSGGSIRSSSYYWGWIRQPPGKGLEWIGSISYSATTYYNPSLKSRVTISVDTSKNQFSLKLSSVTAADTAVYYCAGDPSYDSIAGMQVWGQGTTVTVSS
VL: DIQLTQSPSSLSASVGDRVTITCRASQSISSYLNWYQQKPGKAPKLLIYAASNLQSGVPSRFSGSGSGTDFTLTISSLQPEDFATYYCQQSFDWPLTFGGGTKVEIK
- pSmad2/3 signaling (pSMAD2/3:tSMAD2/3) in whole kidney lysates [1]: significantly inhibit pSmad2/3 signaling

B2: SR-AB42: cycle 3 antibody, lineage SR-AB23; CDRs SEQ ID NO: 166-171; HCVR SEQ ID NO: 318, LCVR SEQ ID NO: 319 (antibody, V domains shown)
VH: QVQLVESGGGVVQPGRSLRLSCAASGFTFRSYVMHWVRQAPGKGLEWVAVISHEGSLKYYADSVKGRFTISRDNSKNTLYLQMNSLRAEDTAVYYCARPRIAARRGGFGYWGQGTLVTVSS
VL: NFMLTQPHSVSESPGKTVTISCTRSSGNIDNNYVQWYQQRPGSSPTTVIYEDNQRPSGVPDRFSGSIDSSSNSASLTISGLKTEDEADYYCQSYDYDTQGVVFGGGTKLTVL
- pSmad2/3 signaling (pSMAD2/3:tSMAD2/3) in whole kidney lysates [1]: significantly inhibit pSmad2/3 signaling

B3: SR-AB23: second-round (CDR-H3 mutagenesis) antibody, lineage SR-AB14; CDRs SEQ ID NO: 116-121 (antibody, V domains shown)
VH: B2 VH
VL: B2 VL with Y96S, T98N
- Inhibition of TGFβ1 activation (TGFβ activity, luciferase) [2]: improved potency
- Inhibition of TGFβ1 activation (TGFβ activity, luciferase) (murine LTBP1-proTGFβ1): improved potency

B4: SR-AB22: second-round (CDR-H3 mutagenesis) antibody, lineage SR-AB14; CDRs SEQ ID NO: 108-113 (antibody, V domains shown)
VH: B2 VH with R98V
VL: B2 VL with Y96S, T98N
- Inhibition of TGFβ1 activation (TGFβ activity, luciferase) [2]: improved potency
- Inhibition of TGFβ1 activation (TGFβ activity, luciferase) (murine LTBP1-proTGFβ1): improved potency

Source: patent US11214614B2, “LTBP complex-specific inhibitors of TGFβ and uses thereof” (Scholar Rock, Inc., priority 2019, dated 2022)
